Test results taken from article PMC6404975.

Columns and labels:
[1] = target: insulin (bovine pancreas) (Bos taurus, UniProt P01317;P01317 25-54;85-105); assay: electrochemical aptamer-based sensor
[2] = target: glucagon (UniProt P01275 53-81); assay: electrochemical aptamer-based sensor
glucagon, sequence (P01275 53-81): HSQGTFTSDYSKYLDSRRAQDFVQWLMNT

insulin (bovine pancreas), sequence (P01317 25-54, chain 1 of 2): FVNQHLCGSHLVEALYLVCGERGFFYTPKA
insulin (bovine pancreas), sequence (P01317 85-105, chain 2 of 2): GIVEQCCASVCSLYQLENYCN

In the case of AAAAGGTGGTGGGGGGGGTTGGTAGGGTGTCTTCT (structured_DNA, 5' thiol-C6 (immobilised on gold); 3' methylene blue) [Insulin-End (IGA3)], the Kd [1] is reported as 240 ± 65 nM and the binding result [2] is reported as “no binding”.
